Test results from paper doi:10.1101/2025.02.28.640611 (bioRxiv, 2025).

Molecular target: the molecule itself
Assay: cross-linking

B1: S. mutans ClpX with a C-terminal hexahistidine tag (enzyme)
chain: not shown
- stoichiometry N: 6
